Assays:
[1] = target: human CD3 cell surface antigen on PBMCs (human) (UniProt P07766); assay: flow cytometry on human PBMCs, detected with rat anti-mouse PE
[2] = target: human CD3 cell surface antigen on PBMCs (human) (UniProt P07766); assay: flow cytometry on human PBMCs, detected with anti-PEG/HL647 label
[3] = target: human CD45 on PBMCs (human) (UniProt P08575); assay: as above
[4] = target: anti-pHIS antibody (clone J099B12, Biolegend), fluorescently labeled with AlexaFluor 488; assay: flow cytometry competition, inhibition format: soluble pHIS preincubated with anti-pHIS antibody before pHIS-conjugated particles
[5] = target: anti-pHIS antibody (clone J099B12, Biolegend), fluorescently labeled with AlexaFluor 488; assay: flow cytometry competition, release format: soluble pHIS added after anti-pHIS antibody was bound to pHIS-conjugated particles
[6] = target: anti-pHIS/CD3 TAC (tetrameric antibody complex of anti-pHIS antibody and anti-CD3 antibody); assay: cell-based or functional assay

UniProt P07766, sequence (P07766 23-207): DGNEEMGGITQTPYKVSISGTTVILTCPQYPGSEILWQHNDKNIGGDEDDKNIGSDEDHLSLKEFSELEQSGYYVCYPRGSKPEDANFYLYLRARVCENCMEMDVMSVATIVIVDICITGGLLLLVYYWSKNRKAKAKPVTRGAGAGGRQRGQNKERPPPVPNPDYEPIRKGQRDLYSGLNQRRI
UniProt P08575, sequence (P08575 26-1306): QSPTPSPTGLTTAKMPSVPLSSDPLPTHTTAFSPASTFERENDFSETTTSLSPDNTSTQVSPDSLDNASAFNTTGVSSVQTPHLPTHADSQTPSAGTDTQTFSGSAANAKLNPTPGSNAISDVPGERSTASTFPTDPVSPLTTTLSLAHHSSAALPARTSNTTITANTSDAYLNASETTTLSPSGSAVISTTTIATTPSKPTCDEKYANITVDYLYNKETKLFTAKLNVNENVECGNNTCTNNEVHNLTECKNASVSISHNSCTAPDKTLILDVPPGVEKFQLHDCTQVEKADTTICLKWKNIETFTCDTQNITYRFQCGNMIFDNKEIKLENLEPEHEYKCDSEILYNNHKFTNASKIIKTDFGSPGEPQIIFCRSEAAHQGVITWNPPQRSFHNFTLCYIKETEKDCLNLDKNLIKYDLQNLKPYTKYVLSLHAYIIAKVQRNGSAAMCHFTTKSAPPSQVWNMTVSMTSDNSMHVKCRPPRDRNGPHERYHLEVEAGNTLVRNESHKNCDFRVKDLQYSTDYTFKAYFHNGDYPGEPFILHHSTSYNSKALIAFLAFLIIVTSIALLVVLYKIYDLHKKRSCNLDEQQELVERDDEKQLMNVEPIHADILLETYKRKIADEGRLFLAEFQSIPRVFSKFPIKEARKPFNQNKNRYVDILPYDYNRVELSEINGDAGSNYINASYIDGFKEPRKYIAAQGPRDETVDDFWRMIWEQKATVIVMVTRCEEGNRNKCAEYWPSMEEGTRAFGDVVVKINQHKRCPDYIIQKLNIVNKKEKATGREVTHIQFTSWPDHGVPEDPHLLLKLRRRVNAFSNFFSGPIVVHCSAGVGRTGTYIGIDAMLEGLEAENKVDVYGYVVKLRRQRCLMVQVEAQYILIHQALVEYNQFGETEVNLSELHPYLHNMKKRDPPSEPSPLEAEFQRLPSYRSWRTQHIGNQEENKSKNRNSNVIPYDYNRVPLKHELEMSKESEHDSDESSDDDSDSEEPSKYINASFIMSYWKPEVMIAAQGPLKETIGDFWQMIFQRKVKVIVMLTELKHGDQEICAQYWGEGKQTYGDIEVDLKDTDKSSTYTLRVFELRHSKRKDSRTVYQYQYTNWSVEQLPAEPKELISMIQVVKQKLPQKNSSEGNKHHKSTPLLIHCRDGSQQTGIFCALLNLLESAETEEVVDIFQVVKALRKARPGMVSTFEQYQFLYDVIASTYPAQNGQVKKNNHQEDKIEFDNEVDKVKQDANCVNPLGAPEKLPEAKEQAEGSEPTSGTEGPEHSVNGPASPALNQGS

Substance: CD3 antibody (clone UCHT1)
- percent of lymphocytes with a CD3+ signal [1]: 87.8%

Substance: CD3 antibody (clone UCHT1) PEGylated with 30 kDa PEG
- percent of cells with a positive signal [2]: 83.4%

Substance: CD45 antibody (clone MEM-28) PEGylated with 30 kDa PEG
- percent of cells with a positive signal [3]: > 96%

Substance: soluble pHIS (polyhistidine) peptide, 0.84 kDa
- IC50 [4]: 1.9 µM
- IC50 [5]: 237 µM
- % Rel (release efficiency), average, n = 2 [6]: 69.3%
- particle release efficiency [6]: 72%

Reference: patent US20190178879A1
